For experiment [1], the target named is human B7-H3-4Ig on CHO-S cells (CHO-S-human B7-H3-4Ig) (human) (UniProt Q5ZPR3). In words: cell-based or functional assay.
Experiment [2] deals with human B7-H3 on human tumor cells (MCF-7, HT29, NCI-N87, HCC1806, HCC827) (human) (UniProt Q5ZPR3). In words: cell-based or functional assay.
The target of experiment [3] is human B7-H3-4Ig-His protein (human) (UniProt Q5ZPR3). In words: ELISA, antigen coated at 1 ug/ml (specificity panel).
For experiment [4] the target is unchanged. In words: ELISA, antigen coated at 1 ug/ml.
The target is the same in experiment [5]. In words: ELISA, antigen coated at 1 ug/ml. This is another data set of the same source.
Experiment [6] concerns the target monkey B7-H3-4Ig-His protein (monkey). In words: ELISA, antigen coated at 1 ug/ml.

Chain of human B7-H3 on human tumor cells (MCF-7, HT29, NCI-N87, HCC1806, HCC827) (human) (Q5ZPR3 29-534): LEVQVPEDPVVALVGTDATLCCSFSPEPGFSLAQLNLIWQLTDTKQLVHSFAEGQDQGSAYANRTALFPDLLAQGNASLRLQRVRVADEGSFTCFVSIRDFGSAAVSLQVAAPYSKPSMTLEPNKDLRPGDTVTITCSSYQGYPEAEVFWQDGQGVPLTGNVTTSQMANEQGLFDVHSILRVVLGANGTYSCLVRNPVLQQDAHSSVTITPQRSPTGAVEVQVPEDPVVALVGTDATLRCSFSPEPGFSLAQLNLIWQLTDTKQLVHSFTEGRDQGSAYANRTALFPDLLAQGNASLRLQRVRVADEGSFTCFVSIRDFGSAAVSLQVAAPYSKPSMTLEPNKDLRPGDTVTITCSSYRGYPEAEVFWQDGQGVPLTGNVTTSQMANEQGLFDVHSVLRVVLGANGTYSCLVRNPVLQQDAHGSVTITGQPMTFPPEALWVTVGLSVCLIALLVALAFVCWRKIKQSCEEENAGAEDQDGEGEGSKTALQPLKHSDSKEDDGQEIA
Chain of human B7-H3-4Ig-His protein (human) (Q5ZPR3 other isoform, or with tags, fused parts or gaps): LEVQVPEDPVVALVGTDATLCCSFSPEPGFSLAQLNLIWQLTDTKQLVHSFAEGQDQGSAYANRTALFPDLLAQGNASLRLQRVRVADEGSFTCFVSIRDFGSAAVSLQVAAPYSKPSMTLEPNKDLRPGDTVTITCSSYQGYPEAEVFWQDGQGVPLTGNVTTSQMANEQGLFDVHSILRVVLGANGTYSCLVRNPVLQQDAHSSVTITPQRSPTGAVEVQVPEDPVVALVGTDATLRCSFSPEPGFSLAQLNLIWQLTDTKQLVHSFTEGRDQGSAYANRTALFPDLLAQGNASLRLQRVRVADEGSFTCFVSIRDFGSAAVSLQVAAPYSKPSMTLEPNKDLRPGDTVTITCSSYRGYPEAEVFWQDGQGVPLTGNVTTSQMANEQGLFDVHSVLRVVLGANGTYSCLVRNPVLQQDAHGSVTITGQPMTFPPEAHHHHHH
Chain of human B7-H3-4Ig on CHO-S cells (CHO-S-human B7-H3-4Ig) (human) (Q5ZPR3 29-534): as the sequence (Q5ZPR3 29-534) above

B1: control B7-H3 antibody DS7300 (antibody, INN chains, looked up, V domains shown)
VH: QVQLVQSGAEVKKPGSSVKVSCKASGYTFTNYVMHWVRQAPGQGLEWMGYINPYNDDVKYNEKFKGRVTITADESTSTAYMELSSLRSEDTAVYYCARWGYYGSPLYYFDYWGQGTLVTVSS
VL: EIVLTQSPATLSLSPGERATLSCRASSRLIYMHWYQQKPGQAPRPLIYATSNLASGIPARFSGSGSGTDFTLTISSLEPEDFAVYYCQQWNSNPPTFGQGTKVEIK
Regarding B1, in experiment [1], the ADCC: EC50 of luciferase signal of Jurkat-NFAT/Luciferase-CD16A effector cells with CHO-S-human B7-H3-4Ig target cells is 0.108 µg/mL. Moreover, the Endocytosis EC50 on HCC827 cells (PHrodo, flow cytometry) in experiment [2] came out at 0.0152 µg/mL. This molecule also gave an Endocytosis EC50 on HCC1806 cells (PHrodo, flow cytometry) in experiment [2] of 0.0572 µg/mL. Further, the Endocytosis EC50 on NCI-N87 cells (PHrodo, flow cytometry) in experiment [2] is 0.0241 µg/mL. The EC50 in experiment [3] amounted to 0.00336 µg/mL; in experiment [4], 0.00336 µg/mL; in experiment [5] it was 0.0138 µg/mL; in experiment [6], 0.0237 µg/mL.

The values are drawn from patent EP4596582A1.
